Test results reported in patent US7268110B2, “Agents for preventing and treating thrombocytopenia” (Chugai Seiyaku Kabushiki Kaisha, priority 1996, dated 2007).

B1: human PTH(1-84) (protein, UniProt P01270 32-115, looked up)
Parathyroid hormone: SVSEIQLMHNLGKHLNSMERVEWLRKKLQDVHNFVALGAPLAPRDAGSQRPRKKEDNVLVESHEKSLGEADKADVNVLTKAKSQ
modifications: Parathyroid hormone

Experiments:
[1] = system: platelet; assay: Effectiveness of PTH derivative, daily administration to mouse; type: in vivo; details: C57B1/6N mice, 200 μg/kg subcutaneously once a day for six days, blood 24 h after final administration
Method: Effectiveness of PTH Derivative
Ten-week old male C57B1/6N mice as purchased from Japan Charles River Co., Ltd. were used in the experiment.
Drug solutions to be administered were prepared basically from human PTH(1-84) and human PTH(1-34) by the same procedure as in Example 1 to give a drug concentration of 20 μg/mL.
Eighteen mice were divided into three groups, which were administered subcutaneously with the two drug solutions and a control (citrate buffer) for six days on a once-a-day basis in a volume of 10 mL/kg. […] The administration was initiated at 10 a.m.
After 24 h of the final administration, a blood sample was withdrawn from each mouse through the orbital vein. Peripheral corpuscle counts were obtained with an automatic corpuscle counter F-800 (TOA MEDICAL ELECTRONICS CO., LTD).

[2] = system: platelet count; assay: Test for daily administration to mouse (platelet increasing action); type: in vivo; details: C57B1/6N mice; for platelet count: day 5
Method: Test for Daily Administration to Mouse
Nine-week old male C57B1/6N mice as purchased from Japan Charles River Co., Ltd. were used in the experiment.
Drug solutions to be administered were prepared basically by the same procedure as in Example 1 to give drug concentrations of 5, 20 and 80 μg/mL.
The mice under test were divided into four groups, which were administered subcutaneously with the three drug solutions and a control (citrate buffer) once a day in a volume of 10 mL/kg. […] The administration was initiated at 10 a.m.
On days 5, 7 and 9 after the start of administration, five or six mice were picked up at random from each group of animals and blood samples were withdrawn through the orbital vein. The sampling of blood was timed to occur 24 h of the final administration. Separate blood samples were taken from untreated mice (five in number) to obtain the value for normal mouse. Peripheral corpuscle counts were obtained with an automatic corpuscle counter F-800 (TOA MEDICAL ELECTRONICS CO., LTD.).

[3] = system: platelet counts; assay: Test for daily administration to rabbit (platelet increasing action); type: in vivo; details: rabbits, 200 μg/kg subcutaneously daily
Method: Test for Daily Administration to Rabbit
Six 12-15 week old male Japanese albino rabbits JW/CSK were used in the experiment. The animals were individually kept in aluminum rabbit bracket cages Rb-1 (350^w×500^d×350^h mm) in a vavarium in a specific pathogen-free environment under the following conditions: temperature, 24±2° C.; humidity, 50±10%; illumination, light turned on at 5:00 and turned off at 19:00; ventilation, 15 changes/hr. Each animal was supplied with 120 g of a radiation-sterilized feed for rabbits RM (purchased from Funahashi Farm) per day. The animals were also allowed to drink to tap water ad libitum from an automatic water feeder.
Human PTH(1-84) was administered in a volume of 2 mL/vial at a concentration of 200 μg/mL. A solvent was also supplied in a volume of 2 mL/vial. Both the drug and the control were stored at −135° C. until use.
PTH (200 μg/kg) was administered to the rabbits subcutaneously at the back of their neck for 13 consecutive days. The solvent was similarly administered in the same volume as the dose of a rh-PTH solution calculated from their body weight.
Blood samples (0.5 mL) were withdrawn from the rabbits through the lateral auricular vein before the administration and on days 2, 6, 9 and 13 during the administration period. […]

[4] = system: CFU-GM (precursor cells of granulocytes and macrophages); details: report by Meytes et al, J. Clin. Invest. 1981; cited from earlier work
[5] = system: platelet counts; assay: Test for single-dose administration to mouse (platelet increasing action); type: in vivo; details: C57B1/6N mice, 10 μg/kg single dose through the tail vein
Method: Test for Single-Dose Administration to Mouse
Nine-week old male C57B1/6N mice as purchased from Japan Charles River Co. Ltd. were used in the experiment.
Human PTH(1-84) was dissolved in a citrate buffer (pH 5; containing 0.05% of Tween 80) at final concentrations of 1, 0.2 and 0.04 ˜g/mL so as to prepare the drug solutions to be administered.
Each of the thus prepared drug solutions and a control (citrate buffer) was administered to 15 mice through the tail vein in a volume of 10 mL/kg. […] The administration was initiated at 10 a.m.
After 3, 6 and 9 hours of the administration, five mice were picked up at random from each group of animals and blood samples were withdrawn through the orbital vein. At 10 a.m. on the same day, separate blood samples were taken from untreated mice (four in number) to obtain the preadministration value. Peripheral corpuscle counts were obtained with an automatic corpuscle counter F-800 (TOA MEDICAL ELECTRONICS CO., LTD.).

[6] = system: BFU-E (precursor cells of erythrocytes); details: report by Meytes et al, J. Clin. Invest. 1981; cited from earlier work

Row | Molecule | platelet increasing action [1] | platelet count ([2]; 200 μg/kg subcutaneously once a day) | platelet count ([2]; 800 μg/kg subcutaneously once a day) | platelet count vs the control ([2]; all treated groups (50, 200 and 800 μg/kg subcutaneously once a day), day 7) | platelet count relative to the initial level ([3]; day 13) | platelet count relative to the initial value ([3]; increase from day 2 until day 6) | in vitro colony formation by CFU-GM [4] | platelet counts over the control ([5]; 6 h after the administration) | platelet counts over the control ([5]; 9 h after the administration) | in vitro colony formation by BFU-E [6]
1 | human PTH(1-34) (SVSEIQLMHNLGKHLNSMERVEWLRKKLQDVHNF; Parathyroid hormone; UniProt P01270 32-65, looked up, fragment) [PTH(134), partial peptide of PTH composed of 34 amino acids as counted from the N terminus; purchased from Peptide Institute, Inc, reference compound] | comparable platelet increasing action to PTH(1-84) | – | – | – | – | – | – | – | – | –
2 | B1 | platelet increasing action | tendency to increase | tendency to increase | significantly higher | substantially returned to the initial level | two to four | interfered | significant increase | significant increase | interfered
